{"source": "paper PMC2686266", "binders": {"B1": {"name": "His-tagged nuclear shuttle protein (NSP) of Cabbage leaf curl virus (CaLCuV), Q96706 1-256 (natural protein)", "chain": "MYPTKFRRGVSYSQRRFVSRNQSSKRGTFVRRTDGKRRKGPSSKAHDEPKMKLQRIHENQYGPEFVMTHNSALSTFINFPVLGKIEPNRSRSYIKLNRLSFKGTVKIERVHADVNMDGVISKIEGVFSLVIVVDRKPHLSSTGGLHTFDEIFGARIHSHGNLAITPGLKDRYYVLHVLKRVLSVEKDTLMVDLEGSTTISNRRYNCWASFNDLEHDLCNGVYANISKNAILVYYCWMSDAMSKASTFVSYDLDYLG"}}, "target": "the mutant kinases (GST-fused NIK1 kinase domains with single and double amino acid replacements in the A-loop, except T474D)", "data": [{"binder": "B1", "values": [{"measurement": "further reduction of the residual autophosphorylation activity of the mutant kinases in vitro in the presence of GST-NSP", "result": "50 to 70", "unit": "%"}]}]}
